One molecule from patent US20100041597A1 (published 2010) can be followed below.

In the assay the target is T1, PKC-ι (endogenous, human cell extracts) (human, UniProt P41743 2-596).
T1 construct: also called PKC-iota
T1 sequence (looked up): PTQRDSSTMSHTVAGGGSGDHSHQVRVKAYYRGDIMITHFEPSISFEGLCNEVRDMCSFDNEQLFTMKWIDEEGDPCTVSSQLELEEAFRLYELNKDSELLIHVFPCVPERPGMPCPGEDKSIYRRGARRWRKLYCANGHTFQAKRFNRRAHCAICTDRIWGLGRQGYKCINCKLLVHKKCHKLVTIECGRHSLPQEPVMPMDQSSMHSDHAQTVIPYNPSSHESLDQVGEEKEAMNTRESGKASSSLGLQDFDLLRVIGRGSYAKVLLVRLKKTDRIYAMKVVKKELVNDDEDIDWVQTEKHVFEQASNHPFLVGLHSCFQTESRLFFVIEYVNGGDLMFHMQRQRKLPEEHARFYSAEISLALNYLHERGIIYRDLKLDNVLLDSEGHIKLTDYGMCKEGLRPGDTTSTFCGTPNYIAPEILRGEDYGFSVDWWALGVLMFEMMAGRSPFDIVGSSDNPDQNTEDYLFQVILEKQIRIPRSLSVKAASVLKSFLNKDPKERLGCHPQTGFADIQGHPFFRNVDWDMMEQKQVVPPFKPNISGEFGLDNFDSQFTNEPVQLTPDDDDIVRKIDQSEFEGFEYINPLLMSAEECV
Briefly: Western-blot competition on cell extracts against the anti-PKC-ι primary antibody; band densitometry.

B1: PRE 12 (peptide)
peptide: Ac-KDAQNLI-NH2
notes: Synthetic peptide; also called peptide PRE 12; Ac-KDAQNLI-NH2
In the case of B1, the binding result is “no binding (tested: 20X the primary antibody concentration)”.
